Substitutions are numbered along the chain they refer to. Names and notes keep the numbering of the source. One block for each binder: values may come before it.
Columns and labels:
hCD155 (Table 28) = target: T1, hCD155 (Table 28) (human, UniProt P15151 21-343, limits assumed); test: SPR 25C, biotin-CD226-His captured, steady state fitting
T1 sequence (looked up): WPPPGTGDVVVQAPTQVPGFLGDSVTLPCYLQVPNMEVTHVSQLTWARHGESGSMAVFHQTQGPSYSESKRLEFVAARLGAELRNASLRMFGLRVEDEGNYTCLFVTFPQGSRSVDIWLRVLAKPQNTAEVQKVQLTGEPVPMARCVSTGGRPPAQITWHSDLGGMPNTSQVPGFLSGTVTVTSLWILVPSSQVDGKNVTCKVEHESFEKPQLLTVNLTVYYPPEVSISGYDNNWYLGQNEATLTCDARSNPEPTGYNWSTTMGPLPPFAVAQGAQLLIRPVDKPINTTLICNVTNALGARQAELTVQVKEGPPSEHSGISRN
Method: To determine the binding affinity to hu-CD226 and cy-CD226 of mAb1.v7.NGS8, h10G1, hCD155 and anti-hCD226 antibody DX11 (Abcam, cat #Ab33397), SPR measurement with a BIACORE™ 8K instrument was performed. Briefly, a 1:4 dilution of Biotin CAPture Reagent (GE Healthcare) into HBS-EP buffer (0.01 M HEPES pH 7.4, 0.15 M NaCl, 3 mM EDTA, 0.005% Surfactant P20) was applied to the chip at 2 µL/min flow rate. For the kinetics measurements, 5 µg/ml of biotinylated hu-CD226 His tag (Sino biological, cat #10565-H08H) and cy-CD226 His tag (Arco biosystems, cat #DN1-052H9) was captured at 10 µL/min to achieve ~50 response units in the second flow cell (FC2). FC1 was kept as a reference. Next, 3-fold serial dilutions of IgG in HBS-P buffer (0.01 M HEPES pH 7.4, 0.15 M NaCl, 0.005% surfactant P20) from low (1.3 nM) to high (1000 nM) concentration were injected (flow rate: 30 µL/min) at 25° C. The sensorgram was recorded and subject to reference and buffer subtraction before evaluating by BIACORE® 8K Evaluation Software (version 1.1.1.7442). Association rates ($kon$) and dissociation rates ($koff$) were calculated using a simple one-to-one Langmuir binding model. The equilibrium dissociation constant (K_D) value was calculated as the ratio of $koff/kon$. […]

cy-CD96 Fc = target: T2, cy-CD96 Fc (cynomolgus monkey, biotinylated in Table 16); test: SPR (Biacore), Fab
T2 construct: also called biotinylated cy-CD96-Fc

hu-CD96 Fc [1] = target: T3, hu-CD96 Fc (human, biotinylated in Table 16); test: SPR (Biacore), Fab
T3 construct: also called biotinylated hu-CD96-Fc

[2] = target: T4, cy-CD96 (soluble, extracellular domain) (cynomolgus monkey, UniProt P40200 22-516 (human entry), biotinylated in Octet and blocking ELISA); test: BLI (Octet), biotin-CD96 on SA, Fab analyte
T4 construct: the assays name only cy-CD96; also called biotinylated cy-CD96
T4 chain: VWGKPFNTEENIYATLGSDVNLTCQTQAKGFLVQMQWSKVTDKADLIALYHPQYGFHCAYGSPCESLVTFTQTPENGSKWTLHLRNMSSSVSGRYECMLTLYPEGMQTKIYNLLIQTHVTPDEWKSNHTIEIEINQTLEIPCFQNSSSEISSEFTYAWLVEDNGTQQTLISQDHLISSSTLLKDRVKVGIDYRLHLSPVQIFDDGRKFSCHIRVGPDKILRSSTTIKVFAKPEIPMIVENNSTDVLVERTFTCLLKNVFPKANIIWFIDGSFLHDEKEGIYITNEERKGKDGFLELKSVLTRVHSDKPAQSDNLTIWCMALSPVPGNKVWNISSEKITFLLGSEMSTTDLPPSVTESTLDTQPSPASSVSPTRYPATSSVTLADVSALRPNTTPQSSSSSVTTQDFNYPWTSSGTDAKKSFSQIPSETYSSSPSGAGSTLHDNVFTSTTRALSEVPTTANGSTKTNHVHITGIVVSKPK

[3] = target: T5, hu-CD96 (soluble, isoform 2 extracellular domain) (human, UniProt P40200 22-516, biotinylated in Octet and blocking ELISA); test: BLI (Octet), biotin-CD96 on SA, Fab analyte
T5 construct: the assays name only hu-CD96; also called hCD96; biotinylated hu-CD96
T5 sequence: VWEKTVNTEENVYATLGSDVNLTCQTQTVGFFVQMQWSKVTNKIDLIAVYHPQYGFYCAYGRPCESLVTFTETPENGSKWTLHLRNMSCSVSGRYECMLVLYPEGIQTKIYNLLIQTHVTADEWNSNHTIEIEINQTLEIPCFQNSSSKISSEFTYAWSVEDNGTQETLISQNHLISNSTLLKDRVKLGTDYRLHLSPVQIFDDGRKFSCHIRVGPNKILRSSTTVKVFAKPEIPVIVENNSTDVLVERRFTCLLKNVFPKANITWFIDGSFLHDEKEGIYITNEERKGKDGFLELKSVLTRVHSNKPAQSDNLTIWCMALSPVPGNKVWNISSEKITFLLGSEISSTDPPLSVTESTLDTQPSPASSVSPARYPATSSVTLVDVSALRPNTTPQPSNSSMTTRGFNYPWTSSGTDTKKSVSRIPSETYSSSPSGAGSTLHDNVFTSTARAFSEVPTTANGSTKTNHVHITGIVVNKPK

[4] = target: T4, cy-CD96 (soluble, extracellular domain); test: CD155 blocking ELISA
[5] = target: T5, hu-CD96 (soluble, isoform 2 …); test: CD155 blocking ELISA
[6] = target: T6, hu-CD96 isoform 2 on CHO cells (human, UniProt P40200 22-585); test: FACS, CD155-Fc-FLAG 10 nM, Ab 0.8 nM
T6 construct: also called CHO-CD96 (isoform 2); CD96-CHOs
T6 sequence: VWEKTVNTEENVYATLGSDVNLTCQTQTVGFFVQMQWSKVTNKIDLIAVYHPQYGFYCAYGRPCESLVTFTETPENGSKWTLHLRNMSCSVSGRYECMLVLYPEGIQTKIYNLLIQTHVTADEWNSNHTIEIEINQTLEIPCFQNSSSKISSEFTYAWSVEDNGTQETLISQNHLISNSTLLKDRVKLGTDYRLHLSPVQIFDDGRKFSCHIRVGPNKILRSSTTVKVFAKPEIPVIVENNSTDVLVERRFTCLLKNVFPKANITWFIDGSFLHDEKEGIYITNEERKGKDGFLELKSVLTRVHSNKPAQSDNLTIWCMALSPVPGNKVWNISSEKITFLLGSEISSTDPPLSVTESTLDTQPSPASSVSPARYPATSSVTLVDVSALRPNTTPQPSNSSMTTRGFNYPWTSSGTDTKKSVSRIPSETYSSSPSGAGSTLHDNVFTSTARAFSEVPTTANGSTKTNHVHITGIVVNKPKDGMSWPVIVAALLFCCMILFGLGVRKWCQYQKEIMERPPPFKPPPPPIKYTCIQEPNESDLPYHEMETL
Method: (§1) CHO cells stably expressing isoform 2 of hu-CD96 (Origene, catalog #RC221005) were incubated with anti-CD96 antibodies for 20 minutes at 4° C. The cells were washed, and then incubated with 10 nM human CD155-Fc-FLAG for 30 minutes at 4° C. Cells were washed, and then human CD155-Fc-FLAG binding was detected by incubation with anti-FLAG-APC (Columbia Biosciences, catalog #D3-1718-1MG) for 20 minutes at 4° C. Cell binding was analyzed by flow cytometry with a CytoFLEX (Beckman Coulter). CD155 binding is represented as median fluorescence intensity (MedFI).
(§2) As shown in Table 20 (below), the anti-CD96 antibodies, mAb1.v7.NGS8, mAb1.v7.NGS9, mAb1.v7.NGS10, mAb1.v7.NGS11, and h10G1 inhibited soluble hu-CD155 binding to CD96-expressing CHO cells dose-dependently and potently. The antibody NK92.39 (Fuchs et al., 2004; Biolegend catalog #338405) inhibited receptor binding similarly.

[7] = target: T6, hu-CD96 isoform 2 on CHO cells; test: FACS, CD155-Fc-FLAG 10 nM, Ab 0.032 nM
Method: as §1, §2

[8] = target: T6, hu-CD96 isoform 2 on CHO cells; test: FACS, CD155-Fc-FLAG 10 nM, Ab 0.0064 nM
Method: as §1, §2

[9] = target: T6, hu-CD96 isoform 2 on CHO cells; test: FACS, CD155-Fc-FLAG 10 nM, Ab 4 nM
Method: as §1, §2

hu-CD96 Fc [10] = target: T3, hu-CD96 Fc; test: SPR 37C, biotin-CD96-Fc captured, IgG analyte
Method: Briefly, a 1:4 dilution of Biotin CAPture Reagent (GE Healthcare) into HBS-EP buffer (0.01 M HEPES pH 7.4, 0.15 M NaCl, 3 mM EDTA, 0.005% Surfactant P20) was applied to the chip at 2 µL/min flow rate. For the kinetics measurements, 20 nM biotinylated hu-CD96-Fc and cy-CD96-Fc was captured at 10 µL/min to achieve ~50 response units in the second flow cell (FC2). FC1 was kept as a reference. Next, 4-fold serial dilutions of IgG in HBS-P buffer (0.01 M HEPES pH 7.4, 0.15 M NaCl, 0.005% surfactant P20) from low (3.125 nM) to high (200 nM) concentration were injected (flow rate: 10 µL/min) at 37° C. The sensorgram was recorded and subject to reference and buffer subtraction before evaluating by BIACORE® 8K Evaluation Software (version 1.1.1.7442). Association rates ($kon$) and dissociation rates ($koff$) were calculated using a simple one-to-one Langmuir binding model. The equilibrium dissociation constant (K_D) value was calculated as the ratio of $koff/kon$.

[11] = target: T6, hu-CD96 isoform 2 on CHO cells; test: FACS, CD155-Fc-FLAG 10 nM, Ab 100 nM
Method: as §1, §2

[12] = target: T6, hu-CD96 isoform 2 on CHO cells; test: FACS, blocks 10 nM CD155-Fc-FLAG binding to CD96-CHO
Method: as §1, §2

[13] = target: T6, hu-CD96 isoform 2 on CHO cells; test: FACS, CD155-Fc-FLAG 10 nM, Ab 0.16 nM
Method: as §1, §2

[14] = target: T6, hu-CD96 isoform 2 on CHO cells; test: FACS, CD155-Fc-FLAG 10 nM, Ab 20 nM
Method: as §1, §2

Kd (hCD155 (Table 28)): 161 nM
B1: hu-CD226 His tag (receptor, human, UniProt Q15762 19-247, looked up)
chain: EEVLWHTSVPFAENMSLECVYPSMGILTQVEWFKIGTQQDSIAIFSPTHGMVIRKPYAERVYFLNSTMASNNMTLFFRNASEDDVGYYSCSLYTYPQGTWQKVIQVVQSDSFEAAVPSNSHIVSEPGKNVTLTCQPQMTWPVQAVRWEKIQPRQIDLLTYCNLVHGRNFTSKFPRQIVSNCSHGRWSVIVIPDVTVSDSGLYRCYLQASAGENETFVMRLTVAEGKTDN
modifications: biotinylated

Kd (cy-CD96 Fc): 16.7 nM | koff (cy-CD96 Fc): 0.000414 s⁻¹ | kon (cy-CD96 Fc): 24800 M⁻¹ s⁻¹ | Kd (hu-CD96 Fc [1]): 5.85 nM | koff (hu-CD96 Fc [1]): 8.32e-05 s⁻¹ | kon (hu-CD96 Fc [1]): 14200 M⁻¹ s⁻¹ | Kd [2]: 82 nM | Kd [3]: 0.1 nM | IC50 [4]: 0.73 nM | IC50 [5]: 0.78 nM
B2: mAb1.v7.NGS9 Fab (Fab, V domains shown)
VH: EVQLVQSGAEVKKPGASVKVSCKASGFTFTNNFMHWVRQAPGQGLEWIGMIHANSGITNINEKFKNRVTMTTDTSTSTAYMELRSLRSEDTAVYYCRSDGVYEGYFDYWGQGTLVTVSS
VL: DIQLTQSPSSLSASVGDRVTITCKASQNVGTAIVWYQQKPGKAPKVLIYSASTRYTGVPSRFSGSGSGTDFTLTISSLQPEDFATYYCQQYSSSPLTFGQGTKVEIK
notes: also called W33F/P52aA/T97V

CD155-Fc binding (MedFI) [6]: 23600 MedFI | CD155-Fc binding (MedFI) [7]: 47800 MedFI | CD155-Fc binding (MedFI) [8]: 49200 MedFI | CD155-Fc binding (MedFI) [9]: 4960 MedFI | Kd (hu-CD96 Fc [10]): 0.15 nM | koff (hu-CD96 Fc [10]): 1.99e-05 s⁻¹ | kon (hu-CD96 Fc [10]): 129000 M⁻¹ s⁻¹ | CD155-Fc binding (MedFI) [11]: 4180 MedFI | IC50 [12]: 0.76 nM | CD155-Fc binding (MedFI) [13]: 52900 MedFI | CD155-Fc binding (MedFI) [14]: 4290 MedFI
B3: mAb1.v7.NGS8 IgG (antibody, V domains shown)
VH: B2 VH with V101I
VL: DIQLTQSPSSLSASVGDRVTITCKASQNVGTAIVWYQQKPGKAPKVLIYSASTRYTGVPSRFSGSGSGTDFTLTISSLQPEDFATYYCQQYSSSPLTFGQGTKVEIKG
notes: human IgG1 N297G

Kd (cy-CD96 Fc): 30 nM | koff (cy-CD96 Fc): 0.000343 s⁻¹ | kon (cy-CD96 Fc): 11400 M⁻¹ s⁻¹ | Kd (hu-CD96 Fc [1]): 2.1 nM | koff (hu-CD96 Fc [1]): 2.6e-05 s⁻¹ | kon (hu-CD96 Fc [1]): 12100 M⁻¹ s⁻¹ | IC50 [4]: 0.84 nM | IC50 [5]: 0.54 nM
B4: mAb1.v7.NGS10 Fab (Fab, V domains shown)
VH: B2 VH with M50F, V101I
VL: B2 VL
notes: Fab; also called W33F/M50F/P52aA/T97I

Kd (cy-CD96 Fc): 19.1 nM | koff (cy-CD96 Fc): 0.000215 s⁻¹ | kon (cy-CD96 Fc): 11200 M⁻¹ s⁻¹ | Kd (hu-CD96 Fc [1]): 2.62 nM | koff (hu-CD96 Fc [1]): 2.75e-05 s⁻¹ | kon (hu-CD96 Fc [1]): 10500 M⁻¹ s⁻¹ | IC50 [4]: 0.95 nM | IC50 [5]: 0.59 nM
B5: mAb1.v7.NGS11 Fab (Fab, V domains shown)
VH: B2 VH with M50F
VL: B2 VL
notes: also called W33F/M50F/P52aA/T97V

Source: patent publication US12365732 (23ANDME, dated 2025)
